Assay results: patent US9540428B2, “Extracellular matrix heparin-binding domains” (EPFL-TTO, priority 2012, dated 2017)

B1: TNC III1-5: recombinant tenascin C fibronectin type III repeats 1-5 (E622 to A1074) with transglutaminase substrate NQEQVSPL and 6×His tag, SEQ ID NO:1 (protein)
chain: METDTLLLWVLLLWVPGSTGDAAQPAIEGRNQEQVSPLGGSEVSPPKDLVVTEVTEETVNLAWDNEMRVTEYLVVYTPTHEGGLEMQFRVPGDQTSTIIQELEPGVEYFIRVFAILENKKSIPVSARVATYLPAPEGLKFKSIKETSVEVEWDPLDIAFETWEIIFRNMNKEDEGEITKSLRRPETSYRQTGLAPGQEYEISLHIVKNNTRGPGLKRVTTTRLDAPSQIEVKDVTDTTALITWFKPLAEIDGIELTYGIKDVPGDRTTIDLTEDENQYSIGNLKPDTEYEVSLISRRGDMSSNPAKETFTTGLDAPRNLRRVSQTDNSITLEWRNGKAAIDSYRIKYAPISGGDHAEVDVPKSQQATTKTTLTGLRPGTEYGIGVSAVKEDKESNPATINAATELDTPKDLQVSETAETSLTLLWKTPLAKFDRYRLNYSLPTGQWVGVQLPRNTTSYVLRGLEPGQEYNVLLTAEKGRHKSKPARVKASTEQAGGGSHHHHHH
modifications: Tenascin III signal sequence with polyhistidine tag
B2: Fg β15-66: heparin-binding domain of human fibrinogen β chain aa15-66 (SEQ ID NO:8); construct with TG substrate and His tag, SEQ ID NO:2 (protein)
chain: GSNQEQVSPLGHRPLDKKREEAPSLRPAPPPISGGGYRARPAKAAATQKKVERKAPDAGGCGHHHHHH
modifications: GS linker, transglutaminase substrate, the Fg beta15-66, with a Histidine tag

What was measured:
factor XIIIa = molecular target: T1, factor XIIIa (Homo sapiens, UniProt P00488); assay: Transglutaminase substrate activity (TAMRA, fibrinogen, PEG-lysine with factor XIIIa); assay type: biochemical; settings: with and without factor XIIIa
T1 sequence (P00488 39-732 limits assumed): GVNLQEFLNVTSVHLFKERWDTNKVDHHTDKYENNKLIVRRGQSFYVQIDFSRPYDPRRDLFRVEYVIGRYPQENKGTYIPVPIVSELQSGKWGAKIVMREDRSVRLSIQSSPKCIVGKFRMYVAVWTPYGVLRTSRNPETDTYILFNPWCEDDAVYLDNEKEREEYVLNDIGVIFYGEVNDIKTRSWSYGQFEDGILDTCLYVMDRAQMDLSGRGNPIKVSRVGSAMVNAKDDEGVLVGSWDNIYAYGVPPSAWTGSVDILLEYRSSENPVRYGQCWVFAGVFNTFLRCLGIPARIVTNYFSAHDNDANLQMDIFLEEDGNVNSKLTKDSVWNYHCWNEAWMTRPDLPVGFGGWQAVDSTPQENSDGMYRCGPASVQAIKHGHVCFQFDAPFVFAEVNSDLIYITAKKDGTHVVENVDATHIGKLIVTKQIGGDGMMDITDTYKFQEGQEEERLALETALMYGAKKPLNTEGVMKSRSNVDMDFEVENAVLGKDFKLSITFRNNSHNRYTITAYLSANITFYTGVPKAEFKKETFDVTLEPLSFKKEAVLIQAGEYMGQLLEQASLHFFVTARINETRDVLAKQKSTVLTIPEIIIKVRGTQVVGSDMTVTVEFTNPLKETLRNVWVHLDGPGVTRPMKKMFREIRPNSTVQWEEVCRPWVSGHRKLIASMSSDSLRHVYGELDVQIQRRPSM
Procedure: The activity of the transglutaminase substrate (TG: NQEQVSPL) (SEQ ID NO:10) of the engineered protein TG-TNC III1-5 was confirmed. FIG. 12 depicts results. Methods: A) The TG activity of TG-TNC III1-5 was tested by reaction with a fluorescent TAMRA molecule, containing lysines, with and without the presence of factor XIIIa, the TAMRA molecule, or TG-TNC III1-5. […] B) The TG activity of TG-TNC III1-5 was tested by reaction with fibrinogen, with and without the presence of factor XIIIa, fibrinogen, or TG-TNC III1-5. Fibrinogen or no protein was coated on an ELISA plate (1 hr, 37° C.), blocked with 2% BSA (1 hr, RT), reacted with or without TG-TNC III1-5 or factor XIIIa C) The TG activity of TG-TNC III1-5 was tested by reaction with PEG-lysines. A robotic spotter was used to bind TG-TNC III1-5 inside 450 μm spots (Gobaa, Hoehnel, et al., 2011), and an immuno-fluorescent stain was used to visualize the location and distribution of TG-TNC III1-5 onto the PEG. D) TG-TNC III1-5 and TG-FN III9*-10,TNC III1-5 (5 μM) were incorporated into a 2% TG-PEG gel. After 2 washed with PBS, 98% and 96% respectively of the fragments was bound into gels, which were sequentially stained with HRP-conjugated anti-HIS, and developed with TMB to read an absorbance at 450 nm.

FGF-17 = molecular target: T2, FGF-17 (Homo sapiens, UniProt O60258); assay: ELISA binding to coated FGF-17; settings: 50 nM cytokine coated
T2 sequence (O60258 23-216): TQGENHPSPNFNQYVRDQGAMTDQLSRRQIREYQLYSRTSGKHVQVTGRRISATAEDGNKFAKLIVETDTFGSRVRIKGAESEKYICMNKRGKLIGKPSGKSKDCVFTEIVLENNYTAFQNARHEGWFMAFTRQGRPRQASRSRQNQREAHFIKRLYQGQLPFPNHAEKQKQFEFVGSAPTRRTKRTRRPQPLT
Procedure: (§1) ELISA plates were coated with cytokines or BSA and further incubated with TNC III1-5 to analyze binding of TNC III1-5 to a wide variety of cytokines. […] Results are depicted in FIG. 3. Method: 50 nM of cytokine was coated for (1 hr, 37° C.). After blocking with 2% BSA (1 hr, RT). 100 nM TNC III1-5 was applied in PBST (0.05% tween, 0.1% bovine serum albumin (BSA)) (1 hr, RT). TNC III1-5 was detected with horseradish peroxidase (HRP)-anti-HIS in PBST (1 hr, RT) and developed with 3,3′,5,5′-tetramethylbenzidine (TMB), a soluble colorimetric HRP […]. Addition of sulfuric acid stop solution changes the color to yellow, enabling accurate measurement of the intensity at 450 nm using a spectrophotometer or plate reader. […] Heparin (4 μM) was added to TNC III1-5 to test the effect of blocking the heparin binding site of TNC III1-5, which has been defined as domain TNC III5 (Weber, Zimmermann, et al., 1995).

HUVEC cells = assay: HUVEC proliferation with cytokines with or without fibrinogen or Fg β15-66; assay type: cell-based, human; settings: 72 hours; ≧100-fold molar excess; VEGF-A165, PlGF-2, FGF-2
Procedure: To verify that cytokines bound to Fg β15-66 are still bioactive, the proliferation of HUVEC cells was tested for different cytokines with and without the presence of Fg β15-66. Method: HUVEC cells were stimulated with various cytokines: VEGF-A165, PlGF-2, and FGF-2 with or without fibrinogen or Fg β15-66 in excess (≧100-fold molar excess).

skin wounds = assay: Full-thickness back-skin wound healing in diabetic mice; assay type: in vivo; settings: TG-PEG gels functionalized with TG-Fg β15-66 delivering FGF-2 and PlGF-2; 10 days
Procedure: Method: Full-thickness back-skin wounds were treated with combined FGF-2 and PlGF-2. Seven groups were tested: treatment (no ECM); fibrin only; fibrin containing cytokines; PEG only, PEG containing cytokines; PEG functionalized with TG-Fg β15-66, and PEG functionalized with TG-Fg β15-66 containing cytokines. After 10 days, wound closure and granulation tissue area were evaluated by histology. FIG. 20 details the results.

PlGF-3 = molecular target: T3, PlGF-3 (Homo sapiens, UniProt P49763); assay: ELISA binding to coated PlGF-3; settings: 50 nM cytokine coated
T3 sequence (P49763 19-221): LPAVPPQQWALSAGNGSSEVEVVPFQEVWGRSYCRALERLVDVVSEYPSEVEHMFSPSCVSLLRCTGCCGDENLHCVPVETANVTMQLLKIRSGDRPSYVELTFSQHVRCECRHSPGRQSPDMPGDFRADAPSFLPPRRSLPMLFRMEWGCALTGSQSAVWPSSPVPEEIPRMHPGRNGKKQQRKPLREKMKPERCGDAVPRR
Procedure: as §1
ELISA plates were coated with cytokines or BSA and further incubated with Fg β15-66 to analyze binding of […] to a wide variety of cytokines. […] Results are depicted in FIG. 4. Method: The methods were analogous to those used in Example 3.

| Molecule | activity of the transglutaminase substrate (TG: NQEQVSPL) (factor XIIIa) | binding to FGF-17 (ELISA, signal above BSA background) (FGF-17) | synergistic effect on HUVEC proliferation, cytokines plus protein vs cytokines alone (HUVEC cells) | skin-wound healing (skin wounds) | binding to PlGF-3 (ELISA, signal above BSA background) (PlGF-3) |
| --- | --- | --- | --- | --- | --- |
| B1 | confirmed | positive binding |  |  |  |
| B2 |  |  | no synergistic effect | enhanced skin-wound healing | positive binding |
